Source: paper PMC4617613 (Nature, 2015)

B1: PhnJ (natural protein)
chain: MANLSGYNFAYLDEQTKRMIRRAILKAVAIPGYQVPFGGREMPMPYGWGTGGIQLTASVIGESDVLKVIDQGADDTTNAVSIRNFFKRVTGVNTTERTDDATVIQTRHRIPETPLTEDQIIIFQVPIPEPLRFIEPRETETRTMHALEEYGVMQVKLYEDIARFGHIATTYAYPVKVNGRYVMDPSPIPKFDNPKMDMMPALQLFGAGREKRIYAVPPFTRVESLDFDDHPFTVQQWDEPCAICGSTHSYLDEVVLDDAGNRMFVCSDTDYCRQQSEAKNQ
B2: PhnG (natural protein)
chain: MHADTATRQHWMSVLAHSQPAELAARLNALNITADYEVIRAAETGLVQIQARMGGTGERFFAGDATLTRAAVRLTDGTLGYSWVQGRDKQHAERCALIDALMQQSRHFQNLSETLIAPLDADRMARIAARQAEVNASRVDFFTMVRGDNA
B3: PhnI (natural protein)
chain: MYVAVKGGEKAIDAAHALQESRRRGDTDLPELSVAQIEQQLNLAVDRVMTEGGIADRELAALALKQASGDNVEAIFLLRAYRTTLAKLAVSEPLDTTGMRLERRISAVYKDIPGGQLLGPTYDYTHRLLDFTLLANGEAPTLTTADSEQQPSPHVFSLLARQGLAKFEEDSGAQPDDITRTPPVYPCSRSSRLQQLMRGDEGYLLALAYSTQRGYGRNHPFAGEIRSGYIDVSIVPEELGFAVNVGELLMTECEMVNGFIDPPGEPPHFTRGYGLVFGMSERKAMAMALVDRALQAPEYGEHATGPAQDEEFVLAHADNVEAAGFVSHLKLPHYVDFQAELELLKRLQQEQNHG

What was measured:
[1] = molecular target: B3; assay: crystal structure
[2] = molecular target: the molecule itself; assay: crystal structure

Row | Binder | binding result [1] | stoichiometry N [2]
1 | B1 | binds | –
2 | B2 | binds | –
3 | B3 | – | 2
